# Substrate: CC(C)C[C@H](NC(=O)[C@H](CCCCN)NC(=O)[C@H](C)NC(=O)[C@@H]1CCCN1C(=O)[C@H](CO)NC(=O)[C@H](CCCNC(=N)N)NC(=O)[C@@H]1CCCN1)C(=O)N[C@@H](CO)C(=O)N[C@@H](Cc1ccccc1)C(=O)N[C@@H](CCC(N)=O)C(=O)N[C@@H](Cc1ccccc1)C(=O)N1CCC[C@H]1C(=O)N[C@@H](CO)C(=O)O
# Assay: purified protein, by the assay type
# Type: biochemical, rat (rat ERK2 numbering used throughout)
# Settings: other: phosphorylation by 2 nM ppERK2, 1.6–400 μM Elk387-399, 500 μM γ-32P ATP, 25 mM HEPES pH 7.5, 10 mM MgCl2, 30 °C, Michaelis-Menten fit
# Method: Kinase assays to determine the Michelis-Menten parameters for the phosphorylation of Elk387-399by ppERK2 were performed in 100 μL volumes at 30 °C in a buffer containing 25 mM HEPES pH 7.5, 50 mM KCl, 0.1 mM EDTA, 0.1 mM EGTA, 2 mM DTT, 10 mM MgCl2, and 40 μg/mL BSA. […] The reaction mixture was incubated for 10 minutes at 30 °C before initiation with 500 μM γ-^32P ATP (specific activity of 1 × 10^15 cpm/mol). Aliquots (10 μL) were spotted onto P81 filter papers at fixed times. The filter papers were washed three times for 15 minutes with 50 mM phosphoric acid to remove excess ATP and washed once with acetone for drying. The amount of phosphate incorporated into Elk387-399was determined by the associated counts per minute on a scintillation counter (Packard 1500) at a σ value of 2.
protein,measurement,value
"ppERK2 (Rattus norvegicus) (protein, made in house) MAAAAAAGPEMVRGQVFDVGPRYTNLSYIGEGAYGMVCSAYDNLNKVRVAIKKISPFEHQTYCQRTLREIKILLRFRHENIIGINDIIRAPTIEQMKDVYIVQDLMETDLYKLLKTQHLSNDHICYFLYQILRGLKYIHSANVLHRDLKPSNLLLNTTCDLKICDFGLARVADPDHDHTGFLTEYVATRWYRAPEIMLNSKGYTKSIDIWSVGCILAEMLSNRPIFPGKHYLDQLNHILGILGSPSQEDLNCIINLKARNYLLSLPHKNKVPWNRLFPNADSKALDLLDKMLTFNPHKRIEVEQALAHPYLEQYYDPSDEPIAEAPFKFDMELDDLPKEKLKELIFEETARFQPGYRS",Km,13.4 ± 1.1 µM
same,kcat,0.56 ± 0.1 s⁻¹
